Experimental data: patent publication US20110117017A1, “PEPTIDES WITH PROPERTIES OF AN […] FOR THE ALPHA 1A […] RECEPTOR AND USES THEREOF” (priority 2006, published 2011)

Target: T1, alpha1b adrenergic receptor (expressed in Pichia pastoris, membranes) (Homo sapiens (Human)), P35368
T1 chain: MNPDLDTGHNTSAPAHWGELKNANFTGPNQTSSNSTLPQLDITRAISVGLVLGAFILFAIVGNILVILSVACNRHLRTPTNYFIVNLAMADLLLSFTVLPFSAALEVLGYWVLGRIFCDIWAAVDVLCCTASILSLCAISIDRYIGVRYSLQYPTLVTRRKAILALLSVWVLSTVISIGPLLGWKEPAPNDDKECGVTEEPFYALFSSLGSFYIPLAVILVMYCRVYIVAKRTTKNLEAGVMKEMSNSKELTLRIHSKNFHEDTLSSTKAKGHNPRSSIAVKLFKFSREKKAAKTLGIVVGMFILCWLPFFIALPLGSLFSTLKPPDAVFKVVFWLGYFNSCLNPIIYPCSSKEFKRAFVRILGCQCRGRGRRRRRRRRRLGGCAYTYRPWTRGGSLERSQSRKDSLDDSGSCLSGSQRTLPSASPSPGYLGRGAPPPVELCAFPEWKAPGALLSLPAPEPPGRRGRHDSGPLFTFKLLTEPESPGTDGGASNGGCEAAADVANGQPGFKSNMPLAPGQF
Assay: displacement of 3H-prazosin (1 nM) from yeast membranes, filtration

B1: AdTx1 peptide (peptide)
peptide: LTCVTSKSIFGITTEDCPDGQNLCFKRRHYVVPKIYDSTRGCAATCPIPENYDSIHCCKTDKCNE
modifications: not checked
- IC50: 2300 nM
